These results are taken from patent US20070136897A1, “Nucleic acid molecules encoding hyperactive nucleoside di-phosphate kinase 2 and uses thereof” (priority 2005, published 2007).

The target of data set [1] is T1, Arabidopsis thaliana NDPK2 C-terminal deletion mutant R230Stop (80-229aa), SEQ ID NO: 2 (Arabidopsis thaliana, UniProt O64903).
T1 sequence (O64903 80-229): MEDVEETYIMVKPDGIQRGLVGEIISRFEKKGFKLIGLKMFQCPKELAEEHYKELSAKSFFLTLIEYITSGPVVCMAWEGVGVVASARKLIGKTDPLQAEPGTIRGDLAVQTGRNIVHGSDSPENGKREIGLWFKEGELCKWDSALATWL
Description: Km of NDPK2 mutant R230Stop for nucleotides (γ-phosphate exchange activity assay, LDH-PK-coupled). The conditions noted are these: read-out: Km (ATP); dCDP as acceptor. As to the method:
(§1) In studying the phytochrome binding site in NDPK2, NDPK2 mutants, including the C-terminal deletion mutants, kinase site mutant H197C, and Kpn loop mutant P175S, were made and tested in the binding assays with the Pfr form of native oat phyA (FIG. 2A). […] To investigate the mechanism of hyperactivity of these NDPK2 mutants, the nucleotide affinity was investigated.
(§2) Full-length Arabidopsis NDPK2 was prepared as previously described (Im et al., 2004). The C-terminal deletion mutants of NDPK2 were prepared by polymerase chain reactions using following primers: R230Stop (80-229aa) with 3′ primer: 5′-[…]-[…]-3′ (SmaI) (SEQ ID NO: 8); L225Stop (80-224aa) with 3′ primer: 5′-[…]-[…]

Data set [2] addresses Arabidopsis thaliana NDPK2 C-terminal deletion mutant L225Stop (80-224aa), SEQ ID NO: 3 (Arabidopsis thaliana, UniProt O64903). The conditions noted are these: read-out: Km (ATP); dCDP as acceptor. On the procedure: as §1, §2
Substrate in data set [3]: Nc1nc2c(ncn2[C@@H]2O[C@H](COP(=O)(O)OP(=O)(O)O)[C@@H](O)[C@H]2O)c(=O)[nH]1
The experiment in a line: purified protein, by the assay type. To be noted: other: ATP as donor; 37.0 °C.

Substrate in data set [4]: Nc1ncnc2c1ncn2[C@@H]1O[C@H](COP(=O)(O)OP(=O)(O)OP(=O)(O)O)[C@@H](O)[C@H]1O
Description: Km of NDPK2 for nucleotides (γ-phosphate exchange activity assay, LDH-PK-coupled). It is filed as biochemical, Arabidopsis thaliana. To be noted: other: dCDP as acceptor; 37.0 °C.
Description: NDPK proteins with a cleavable GST tag were expressed in Escherichia coli strain BL21 (DE3). The bacterial cells were induced for 4 h with 1 mM isopropyl β-D-thiogalactopyranoside (IPTG) at 310 K and then harvested by centrifugation at 4,500×g for 20 min. The cells were then resuspended in lysis buffer (1× PBS, phosphate-buffered saline) and lysed by sonication, after which the lysate was centrifuged at 16,000×g for 30 min. The resultant supernatant was applied to a glutathione-sepharose 4B affinity column pre-equilibrated with lysis buffer, after which the column was washed with ten bed volumes of lysis buffer. The GST fusion protein bound to the column was eluted with a buffer of 10 mM glutathione and 50 mM Tris-HCl (pH 8.0). GST Tags were cleaved from NDPKs by treatment with thrombin for 2 days at room temperature. The samples were then purified by size exclusion chromatography using a Superdex 200 column (Pharmacia Biotech) pre-equilibrated with a buffer of 50 mM NaCl and 10 mM Tris-HCl (pH 8.0), after which the fractions containing NDPKs were collected. […]
NDPK2 γ-phosphate exchange activity was measured as previously described (20) with minor modifications. […] NDPK2 activity was measured by monitoring the LDH-PK-coupled NADH decrease at 340 nm. […]

Data set [5] deals with T2, purified native oat phytochrome A, Pfr form, P06593.
T2 chain: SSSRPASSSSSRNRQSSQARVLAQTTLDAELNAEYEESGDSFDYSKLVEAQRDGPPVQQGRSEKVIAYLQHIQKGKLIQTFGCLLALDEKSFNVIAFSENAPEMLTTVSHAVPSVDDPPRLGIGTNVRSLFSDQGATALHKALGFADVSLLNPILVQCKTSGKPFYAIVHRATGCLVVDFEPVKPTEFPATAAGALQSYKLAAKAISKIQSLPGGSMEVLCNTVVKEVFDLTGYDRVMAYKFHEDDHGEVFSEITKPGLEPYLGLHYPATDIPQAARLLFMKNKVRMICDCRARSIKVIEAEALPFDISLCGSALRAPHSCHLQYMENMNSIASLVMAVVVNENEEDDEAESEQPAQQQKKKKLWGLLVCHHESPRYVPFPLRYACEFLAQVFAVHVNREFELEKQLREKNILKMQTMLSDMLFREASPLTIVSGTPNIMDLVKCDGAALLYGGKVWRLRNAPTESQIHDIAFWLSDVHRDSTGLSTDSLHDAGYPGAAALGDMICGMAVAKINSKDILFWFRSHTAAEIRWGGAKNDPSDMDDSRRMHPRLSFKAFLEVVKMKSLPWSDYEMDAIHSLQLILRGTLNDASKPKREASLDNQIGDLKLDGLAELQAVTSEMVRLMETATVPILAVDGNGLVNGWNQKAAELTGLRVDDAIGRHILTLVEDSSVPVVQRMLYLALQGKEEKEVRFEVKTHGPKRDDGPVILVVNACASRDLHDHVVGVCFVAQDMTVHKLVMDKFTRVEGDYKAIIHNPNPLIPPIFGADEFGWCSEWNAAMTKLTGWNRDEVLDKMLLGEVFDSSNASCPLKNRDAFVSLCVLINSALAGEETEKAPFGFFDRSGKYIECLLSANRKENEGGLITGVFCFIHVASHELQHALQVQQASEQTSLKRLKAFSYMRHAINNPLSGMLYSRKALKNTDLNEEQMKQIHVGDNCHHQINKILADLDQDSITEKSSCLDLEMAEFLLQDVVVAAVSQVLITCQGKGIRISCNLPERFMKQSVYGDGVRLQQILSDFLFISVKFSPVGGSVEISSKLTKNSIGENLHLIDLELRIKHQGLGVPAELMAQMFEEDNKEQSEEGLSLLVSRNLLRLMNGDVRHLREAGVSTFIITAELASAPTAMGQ

Data set [6] has as its target T3, purified native oat phytochrome A, Pfr form (oat, UniProt P06593 2-1129).
T3 construct: also called phyA; Pfr phytochrome
T3 sequence (looked up): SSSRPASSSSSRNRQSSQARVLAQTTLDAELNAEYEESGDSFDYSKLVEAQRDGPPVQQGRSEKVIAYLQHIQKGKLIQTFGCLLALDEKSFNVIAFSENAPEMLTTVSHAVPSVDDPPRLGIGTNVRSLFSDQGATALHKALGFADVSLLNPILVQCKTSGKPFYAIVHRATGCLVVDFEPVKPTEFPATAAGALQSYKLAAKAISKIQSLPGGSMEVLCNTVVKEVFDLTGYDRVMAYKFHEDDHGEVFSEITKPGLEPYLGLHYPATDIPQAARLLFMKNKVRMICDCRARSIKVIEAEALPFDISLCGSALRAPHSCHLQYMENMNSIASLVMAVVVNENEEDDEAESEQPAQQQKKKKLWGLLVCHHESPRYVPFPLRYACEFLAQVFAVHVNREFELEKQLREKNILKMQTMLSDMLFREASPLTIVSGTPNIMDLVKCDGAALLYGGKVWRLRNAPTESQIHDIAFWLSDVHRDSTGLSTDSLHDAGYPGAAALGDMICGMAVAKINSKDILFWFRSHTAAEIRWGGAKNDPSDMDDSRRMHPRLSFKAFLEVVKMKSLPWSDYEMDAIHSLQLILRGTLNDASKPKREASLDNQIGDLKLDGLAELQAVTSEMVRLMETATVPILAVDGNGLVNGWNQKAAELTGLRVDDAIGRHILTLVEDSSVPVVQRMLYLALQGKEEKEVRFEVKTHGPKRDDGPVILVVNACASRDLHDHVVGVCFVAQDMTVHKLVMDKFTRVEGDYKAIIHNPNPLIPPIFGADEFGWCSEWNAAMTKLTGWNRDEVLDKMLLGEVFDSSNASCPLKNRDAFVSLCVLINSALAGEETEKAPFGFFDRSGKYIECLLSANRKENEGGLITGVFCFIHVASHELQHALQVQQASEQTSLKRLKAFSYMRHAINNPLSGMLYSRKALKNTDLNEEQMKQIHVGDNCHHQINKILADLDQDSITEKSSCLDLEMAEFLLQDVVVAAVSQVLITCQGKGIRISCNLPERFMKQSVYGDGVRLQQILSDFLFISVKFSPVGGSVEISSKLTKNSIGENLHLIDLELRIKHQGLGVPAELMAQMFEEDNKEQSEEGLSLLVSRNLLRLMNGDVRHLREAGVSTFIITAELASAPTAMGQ
The experiment in a line: in vitro immunoprecipitation with native oat phyA, western blot. From the text:
In studying the phytochrome binding site in NDPK2, NDPK2 mutants, including the C-terminal deletion mutants, kinase site mutant H197C, and Kpn loop mutant P175S, were made and tested in the binding assays with the Pfr form of native oat phyA (FIG. 2A). […] Moreover, no interactions between Pfr phytochrome and mutants N204Stop and S199Stop were observed. […] Results from the γ-phosphate exchange activity assay were consistent with the in vitro binding assay. […] Thus, R230Stop and L225Stop were hyperactive NDPK2 that binds normally to its upstream signaling molecule, phytochrome. To investigate the mechanism of hyperactivity of these NDPK2 mutants, the nucleotide affinity was investigated. By using two natural nucleotide substrates of NDPK2, ATP and GDP, the Kₘ values were measured to examine the relationship between the nucleotide affinity and NDPK activity in NDPK2 hyperactive mutants (Table 1). […] Therefore, it appears that a higher nucleotide affinity corresponds to a higher NDPK activity.
The in vitro binding assays of phytochrome and NDPK2 were performed by incubating 10 μg of phytochrome and 20 μg of NDPK2 in TBS buffer (50 mM Tris-HCl (pH 7.5), 150 mM NaCl), containing 5 mM MgCl₂, 2 mM dCDP, 0.1% NP40 and protease inhibitors, at 4° C. for 30 min. […]
On the technique in general: Immunoblotting shows a protein as a band on a membrane.

Turning to `Nc1ncnc2c1ncn2[C@@H]1O[C@H](COP(=O)(O)OP(=O)(O)OP(=O)(O)O)[C@@H](O)[C@H]1O` [ATP], the Km in data set [1] turned out to be 211 µM; in data set [2] it was 213 µM.

B1: Arabidopsis thaliana nucleoside diphosphate kinase 2 (NDPK2), wild type, SEQ ID NO: 1 (Arabidopsis thaliana) (protein)
chain: ASSSAESGIFLPHLVASMEDVEETYIMVKPDGIQRGLVGEIISRFEKKGFKLIGLKMFQCPKELAEEHYKELSAKSFFLTLIEYITSGPVVCMAWEGVGVVASARKLIGKTDPLQAEPGTIRGDLAVQTGRNIVHGSDSPENGKREIGLWFKEGELCKWDSALATWLRE
notes: hexamer
As for B1, the figures for the Km in data set [3] and in data set [4] were 0.231 mM mM and 0.286 mM mM, respectively.

B2: NDPK2 C-terminal deletion mutant R230Stop (protein)
chain: MEDVEETYIMVKPDGIQRGLVGEIISRFEKKGFKLIGLKMFQCPKELAEEHYKELSAKSFFLTLIEYITSGPVVCMAWEGVGVVASARKLIGKTDPLQAEPGTIRGDLAVQTGRNIVHGSDSPENGKREIGLWFKEGELCKWDSALATWL
Take B2: the “stimulation by Pfr phytochrome in the γ-phosphate exchange activity assay” value in data set [5] was “Mutants R230Stop and L225Stop were stimulated by Pfr phytochrome significantly”. In addition, in data set [3], the Km was 0.203 mM mM.

B3: NDPK2 C-terminal deletion mutant K214Stop (protein)
chain: MEDVEETYIMVKPDGIQRGLVGEIISRFEKKGFKLIGLKMFQCPKELAEEHYKELSAKSFFLTLIEYITSGPVVCMAWEGVGVVASARKLIGKTDPLQAEPGTIRGDLAVQTGRNIVHGSDSPENGKREIGLWF
As to B3, the “stimulation by Pfr phytochrome in the γ-phosphate exchange activity assay” value in data set [5] was “mutants K214Stop, N204Stop, and S199Stop were not stimulated under the identical conditions”.

B4: NDPK2 C-terminal deletion mutant S199Stop (enzyme)
chain: MEDVEETYIMVKPDGIQRGLVGEIISRFEKKGFKLIGLKMFQCPKELAEEHYKELSAKSFFLTLIEYITSGPVVCMAWEGVGVVASARKLIGKTDPLQAEPGTIRGDLAVQTGRNIVHG
notes: also called S199Stop (80-198aa)
As to B4, the “stimulation by Pfr phytochrome in the γ-phosphate exchange activity assay” value in data set [5] was “mutants K214Stop, N204Stop, and S199Stop were not stimulated under the identical conditions”. Besides, the binding result in data set [6] is recorded as “no binding”.

B5: NDPK2 C-terminal deletion mutant N204Stop (enzyme)
chain: MEDVEETYIMVKPDGIQRGLVGEIISRFEKKGFKLIGLKMFQCPKELAEEHYKELSAKSFFLTLIEYITSGPVVCMAWEGVGVVASARKLIGKTDPLQAEPGTIRGDLAVQTGRNIVHGSDSPE
notes: also called N204Stop (80-203aa)
For B5, in data set [5], the “stimulation by Pfr phytochrome in the γ-phosphate exchange activity assay” value was “mutants K214Stop, N204Stop, and S199Stop were not stimulated under the identical conditions”. Besides, the binding result in data set [6] is listed as “no binding”.

B6: NDPK2 C-terminal deletion mutant L225Stop (protein)
chain: MEDVEETYIMVKPDGIQRGLVGEIISRFEKKGFKLIGLKMFQCPKELAEEHYKELSAKSFFLTLIEYITSGPVVCMAWEGVGVVASARKLIGKTDPLQAEPGTIRGDLAVQTGRNIVHGSDSPENGKREIGLWFKEGELCKWDSA
B6: in data set [5], the “stimulation by Pfr phytochrome in the γ-phosphate exchange activity assay” value is “Mutants R230Stop and L225Stop were stimulated by Pfr phytochrome significantly”. Further, the Km in data set [3] was determined as 0.191 mM mM.
